Test results reported in article PMC9482650, “Quantitative fragmentomics allow affinity mapping of interactomes” (Nature Communications, 2022).

T1: MPDZ_12, O75970
T1 sequence (O75970 1857-1958, limits assumed, looked up): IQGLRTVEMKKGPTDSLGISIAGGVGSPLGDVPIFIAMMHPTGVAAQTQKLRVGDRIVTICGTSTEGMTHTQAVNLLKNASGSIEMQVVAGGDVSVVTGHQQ

T2: LIN7A, O14910
T2 sequence (O14910 103-200, limits assumed, looked up): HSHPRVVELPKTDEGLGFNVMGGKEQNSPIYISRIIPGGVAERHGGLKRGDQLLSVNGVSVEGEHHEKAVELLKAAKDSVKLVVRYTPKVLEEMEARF

T3: LNX2_3, Q8N448
T3 sequence (Q8N448 463-564, limits assumed, looked up): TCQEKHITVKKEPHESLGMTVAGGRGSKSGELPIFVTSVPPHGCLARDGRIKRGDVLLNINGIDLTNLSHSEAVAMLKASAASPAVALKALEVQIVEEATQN

T4: NHERF3_4, Q5T2W1
T4 sequence (Q5T2W1 373-468, limits assumed, looked up): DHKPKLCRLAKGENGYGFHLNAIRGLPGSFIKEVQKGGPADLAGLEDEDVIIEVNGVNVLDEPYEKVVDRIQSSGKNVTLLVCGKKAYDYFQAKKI

T5: SHANK1, Q9Y566
T5 sequence (Q9Y566 658-767, limits assumed, looked up): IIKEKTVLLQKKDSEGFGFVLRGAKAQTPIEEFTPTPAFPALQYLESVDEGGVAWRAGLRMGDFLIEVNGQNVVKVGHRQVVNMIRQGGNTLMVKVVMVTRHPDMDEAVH

T6: PDZD2_2, O15018
T6 sequence (O15018 329-429, limits assumed, looked up): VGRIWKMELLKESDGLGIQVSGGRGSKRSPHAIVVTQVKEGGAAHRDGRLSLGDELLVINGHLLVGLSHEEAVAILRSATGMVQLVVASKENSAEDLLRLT

T7: CARD11, Q9BXL7
T7 sequence (Q9BXL7 662-765, limits assumed, looked up): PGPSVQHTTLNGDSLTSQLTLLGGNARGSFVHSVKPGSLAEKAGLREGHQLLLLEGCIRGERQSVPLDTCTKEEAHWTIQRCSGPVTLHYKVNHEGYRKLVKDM

T8: APBA1_2, Q02410
T8 sequence (Q02410 742-832, limits assumed, looked up): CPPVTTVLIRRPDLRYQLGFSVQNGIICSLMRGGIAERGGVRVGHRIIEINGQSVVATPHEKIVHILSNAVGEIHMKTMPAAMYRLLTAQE

T9: RAPGEF6, Q8TEU7
T9 sequence (Q8TEU7 525-625, limits assumed, looked up): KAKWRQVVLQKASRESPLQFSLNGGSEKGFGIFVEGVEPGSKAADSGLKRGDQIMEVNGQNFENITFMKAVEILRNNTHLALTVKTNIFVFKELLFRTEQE


Biological target: T1, MPDZ_12, O75970
Experiment: holdup assay
Set-up: key: below the threshold = too weak to quantify, mostly under pKd 3.1 to 4
Settings: plain residues with an end cap or a label only (N-terminal biotin on a linker: ado-ado)

pKd	Binder
below the threshold	PAPGQHTTQI [STK16, O75716]
below the threshold	DSATVRTYSC [PPFIA1, Q13136]

Biological target: SCRIB_1, Q14160
Experiment: holdup assay
Set-up: key: below the threshold = too weak to quantify, mostly under pKd 3.1 to 4
Settings: plain residues with an end cap or a label only (N-terminal biotin on a linker: ado-ado)

Sequence of SCRIB_1, Q14160 (Q14160 718-814): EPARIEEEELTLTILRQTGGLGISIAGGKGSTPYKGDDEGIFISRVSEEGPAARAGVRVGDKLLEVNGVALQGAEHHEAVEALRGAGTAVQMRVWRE

pKd	Binder
3.84	PAPGQHTTQI [STK16, O75716]
below the threshold	DSATVRTYSC [PPFIA1, Q13136]

Biological target: NHERF2_2, Q15599
Experiment: holdup assay
Set-up: key: below the threshold = too weak to quantify, mostly under pKd 3.1 to 4
Settings: plain residues with an end cap or a label only (N-terminal biotin on a linker: ado-ado)

Sequence of NHERF2_2, Q15599 (Q15599 142-238): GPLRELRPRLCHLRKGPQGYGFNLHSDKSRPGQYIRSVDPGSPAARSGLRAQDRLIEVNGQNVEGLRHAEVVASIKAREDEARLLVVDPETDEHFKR

pKd	Binder
3.78	PAPGQHTTQI [STK16, O75716]
below the threshold	DSATVRTYSC [PPFIA1, Q13136]

Biological target: LIMK2, P53671
Experiment: holdup assay
Set-up: key: below the threshold = too weak to quantify, mostly under pKd 3.1 to 4
Settings: plain residues with an end cap or a label only (N-terminal biotin on a linker: ado-ado)

Sequence of LIMK2, P53671 (P53671 143-248): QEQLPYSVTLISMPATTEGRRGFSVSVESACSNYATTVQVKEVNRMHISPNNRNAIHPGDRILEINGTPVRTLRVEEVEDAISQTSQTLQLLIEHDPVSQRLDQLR

pKd	Binder
below the threshold	PAPGQHTTQI [STK16, O75716]
below the threshold	DSATVRTYSC [PPFIA1, Q13136]

Biological target: NHERF4_1, Q86UT5-2
Experiment: holdup assay
Set-up: key: below the threshold = too weak to quantify, mostly under pKd 3.1 to 4
Settings: plain residues with an end cap or a label only (N-terminal biotin on a linker: ado-ado)

Sequence of NHERF4_1, Q86UT5-2 (Q86UT5 other isoform, or with tags, fused parts or gaps): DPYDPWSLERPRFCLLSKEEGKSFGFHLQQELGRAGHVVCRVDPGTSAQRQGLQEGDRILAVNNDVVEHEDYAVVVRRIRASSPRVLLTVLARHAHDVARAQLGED

pKd	Binder
below the threshold	PAPGQHTTQI [STK16, O75716]
3.98	DSATVRTYSC [PPFIA1, Q13136]

Biological target: T2, LIN7A, O14910
Experiment: holdup assay
Set-up: key: below the threshold = too weak to quantify, mostly under pKd 3.1 to 4
Settings: plain residues with an end cap or a label only (N-terminal biotin on a linker: ado-ado)

pKd	Binder
below the threshold	PAPGQHTTQI [STK16, O75716]
below the threshold	DSATVRTYSC [PPFIA1, Q13136]

Biological target: PARD3_3, Q8TEW0
Experiment: holdup assay
Set-up: key: below the threshold = too weak to quantify, mostly under pKd 3.1 to 4
Settings: plain residues with an end cap or a label only (N-terminal biotin on a linker: ado-ado)

Sequence of PARD3_3, Q8TEW0 (Q8TEW0 582-685): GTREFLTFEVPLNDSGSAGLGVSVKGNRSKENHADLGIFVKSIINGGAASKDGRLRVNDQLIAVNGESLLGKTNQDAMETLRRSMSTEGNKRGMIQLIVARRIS

pKd	Binder
below the threshold	PAPGQHTTQI [STK16, O75716]
below the threshold	DSATVRTYSC [PPFIA1, Q13136]

Biological target: SNX27, Q96L92
Experiment: holdup assay
Set-up: key: below the threshold = too weak to quantify, mostly under pKd 3.1 to 4
Settings: plain residues with an end cap or a label only (N-terminal biotin on a linker: ado-ado)

pKd	Binder
4.27	PAPGQHTTQI [STK16, O75716]
below the threshold	DSATVRTYSC [PPFIA1, Q13136]

Biological target: T3, LNX2_3, Q8N448
Experiment: holdup assay
Set-up: key: below the threshold = too weak to quantify, mostly under pKd 3.1 to 4
Settings: plain residues with an end cap or a label only (N-terminal biotin on a linker: ado-ado)

pKd	Binder
below the threshold	PAPGQHTTQI [STK16, O75716]
below the threshold	DSATVRTYSC [PPFIA1, Q13136]

Biological target: DLG4_3, P78352
Experiment: holdup assay
Set-up: key: below the threshold = too weak to quantify, mostly under pKd 3.1 to 4
Settings: plain residues with an end cap or a label only (N-terminal biotin on a linker: ado-ado)

Sequence of DLG4_3, P78352 (P78352 306-403): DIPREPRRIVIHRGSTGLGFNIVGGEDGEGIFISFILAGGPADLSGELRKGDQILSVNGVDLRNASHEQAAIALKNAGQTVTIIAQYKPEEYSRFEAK

pKd	Binder
below the threshold	PAPGQHTTQI [STK16, O75716]
below the threshold	DSATVRTYSC [PPFIA1, Q13136]

Biological target: GRIP2_4, Q9C0E4
Experiment: holdup assay
Set-up: key: below the threshold = too weak to quantify, mostly under pKd 3.1 to 4
Settings: plain residues with an end cap or a label only (N-terminal biotin on a linker: ado-ado)

Sequence of GRIP2_4, Q9C0E4 (Q9C0E4 446-548): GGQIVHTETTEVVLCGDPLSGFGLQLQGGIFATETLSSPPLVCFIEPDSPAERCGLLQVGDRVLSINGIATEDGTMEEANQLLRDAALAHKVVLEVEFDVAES

pKd	Binder
below the threshold	PAPGQHTTQI [STK16, O75716]
below the threshold	DSATVRTYSC [PPFIA1, Q13136]

Biological target: GRASP, Q7Z6J2
Experiment: holdup assay
Set-up: key: below the threshold = too weak to quantify, mostly under pKd 3.1 to 4
Settings: plain residues with an end cap or a label only (N-terminal biotin on a linker: ado-ado)

Sequence of GRASP, Q7Z6J2 (Q7Z6J2 96-193): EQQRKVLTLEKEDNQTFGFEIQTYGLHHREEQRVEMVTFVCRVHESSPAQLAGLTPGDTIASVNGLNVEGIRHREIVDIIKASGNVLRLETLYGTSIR

pKd	Binder
3.58	PAPGQHTTQI [STK16, O75716]
4.31	DSATVRTYSC [PPFIA1, Q13136]

Biological target: MAGI2_2, Q86UL8
Experiment: holdup assay
Set-up: key: below the threshold = too weak to quantify, mostly under pKd 3.1 to 4
Settings: plain residues with an end cap or a label only (N-terminal biotin on a linker: ado-ado)

Sequence of MAGI2_2, Q86UL8 (Q86UL8 410-522): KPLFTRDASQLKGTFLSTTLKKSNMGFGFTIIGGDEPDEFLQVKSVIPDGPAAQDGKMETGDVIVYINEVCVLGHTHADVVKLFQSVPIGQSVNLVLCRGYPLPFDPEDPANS

pKd	Binder
below the threshold	PAPGQHTTQI [STK16, O75716]
below the threshold	DSATVRTYSC [PPFIA1, Q13136]

Biological target: Inadl_8, Q8NI35
Experiment: holdup assay
Set-up: key: below the threshold = too weak to quantify, mostly under pKd 3.1 to 4
Settings: plain residues with an end cap or a label only (N-terminal biotin on a linker: ado-ado)

Sequence of Inadl_8, Q8NI35 (Q8NI35 1425-1530): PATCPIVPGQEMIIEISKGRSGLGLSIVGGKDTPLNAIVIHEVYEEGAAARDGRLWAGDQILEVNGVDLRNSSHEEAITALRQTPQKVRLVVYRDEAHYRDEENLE

pKd	Binder
below the threshold	PAPGQHTTQI [STK16, O75716]
below the threshold	DSATVRTYSC [PPFIA1, Q13136]

Biological target: T4, NHERF3_4, Q5T2W1
Experiment: holdup assay
Set-up: key: below the threshold = too weak to quantify, mostly under pKd 3.1 to 4
Settings: plain residues with an end cap or a label only (N-terminal biotin on a linker: ado-ado)

pKd	Binder
below the threshold	PAPGQHTTQI [STK16, O75716]
below the threshold	DSATVRTYSC [PPFIA1, Q13136]

Biological target: TJP2_1, Q9UDY2
Experiment: holdup assay
Set-up: key: below the threshold = too weak to quantify, mostly under pKd 3.1 to 4
Settings: plain residues with an end cap or a label only (N-terminal biotin on a linker: ado-ado)

Sequence of TJP2_1, Q9UDY2 (Q9UDY2 24-128): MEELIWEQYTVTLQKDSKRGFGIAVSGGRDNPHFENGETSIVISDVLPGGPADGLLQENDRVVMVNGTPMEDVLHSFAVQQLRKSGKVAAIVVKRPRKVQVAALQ

pKd	Binder
below the threshold	PAPGQHTTQI [STK16, O75716]
below the threshold	DSATVRTYSC [PPFIA1, Q13136]

Biological target: Inadl_9, Q8NI35
Experiment: holdup assay
Set-up: key: below the threshold = too weak to quantify, mostly under pKd 3.1 to 4
Settings: plain residues with an end cap or a label only (N-terminal biotin on a linker: ado-ado)

Sequence of Inadl_9, Q8NI35 (Q8NI35 1530-1615): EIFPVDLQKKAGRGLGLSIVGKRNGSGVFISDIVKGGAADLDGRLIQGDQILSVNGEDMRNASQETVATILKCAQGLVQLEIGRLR

pKd	Binder
below the threshold	PAPGQHTTQI [STK16, O75716]
below the threshold	DSATVRTYSC [PPFIA1, Q13136]

Biological target: T5, SHANK1, Q9Y566
Experiment: holdup assay
Set-up: key: below the threshold = too weak to quantify, mostly under pKd 3.1 to 4
Settings: plain residues with an end cap or a label only (N-terminal biotin on a linker: ado-ado)

pKd	Binder
3.75	PAPGQHTTQI [STK16, O75716]
below the threshold	DSATVRTYSC [PPFIA1, Q13136]

Biological target: HTRA2, O43464
Experiment: holdup assay
Set-up: key: below the threshold = too weak to quantify, mostly under pKd 3.1 to 4
Settings: plain residues with an end cap or a label only (N-terminal biotin on a linker: ado-ado)

Sequence of HTRA2, O43464 (O43464 355-458): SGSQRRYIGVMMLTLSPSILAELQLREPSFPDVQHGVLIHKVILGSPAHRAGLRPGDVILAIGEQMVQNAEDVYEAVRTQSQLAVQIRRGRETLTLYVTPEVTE

pKd	Binder
below the threshold	PAPGQHTTQI [STK16, O75716]
3.66	DSATVRTYSC [PPFIA1, Q13136]

Biological target: IL16_4, Q14005
Experiment: holdup assay
Set-up: key: below the threshold = too weak to quantify, mostly under pKd 3.1 to 4
Settings: plain residues with an end cap or a label only (N-terminal biotin on a linker: ado-ado)

Sequence of IL16_4, Q14005 (Q14005 1229-1329): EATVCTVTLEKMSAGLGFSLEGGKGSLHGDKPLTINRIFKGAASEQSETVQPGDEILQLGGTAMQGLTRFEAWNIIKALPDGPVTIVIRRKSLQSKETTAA

pKd	Binder
below the threshold	PAPGQHTTQI [STK16, O75716]
3.54	DSATVRTYSC [PPFIA1, Q13136]

Biological target: LNX1_3, Q8TBB1
Experiment: holdup assay
Set-up: key: below the threshold = too weak to quantify, mostly under pKd 3.1 to 4
Settings: plain residues with an end cap or a label only (N-terminal biotin on a linker: ado-ado)

Sequence of LNX1_3, Q8TBB1 (Q8TBB1 500-596): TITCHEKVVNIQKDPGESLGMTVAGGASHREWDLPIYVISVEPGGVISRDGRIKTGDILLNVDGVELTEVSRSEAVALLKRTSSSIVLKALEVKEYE

pKd	Binder
below the threshold	PAPGQHTTQI [STK16, O75716]
below the threshold	DSATVRTYSC [PPFIA1, Q13136]

Biological target: T6, PDZD2_2, O15018
Experiment: holdup assay
Set-up: key: below the threshold = too weak to quantify, mostly under pKd 3.1 to 4
Settings: plain residues with an end cap or a label only (N-terminal biotin on a linker: ado-ado)

pKd	Binder
3.91	PAPGQHTTQI [STK16, O75716]
3.7	DSATVRTYSC [PPFIA1, Q13136]

Biological target: T7, CARD11, Q9BXL7
Experiment: holdup assay
Set-up: key: below the threshold = too weak to quantify, mostly under pKd 3.1 to 4
Settings: plain residues with an end cap or a label only (N-terminal biotin on a linker: ado-ado)

pKd	Binder
below the threshold	PAPGQHTTQI [STK16, O75716]
below the threshold	DSATVRTYSC [PPFIA1, Q13136]

Biological target: DLG5_1, Q8TDM6
Experiment: holdup assay
Set-up: key: below the threshold = too weak to quantify, mostly under pKd 3.1 to 4
Settings: plain residues with an end cap or a label only (N-terminal biotin on a linker: ado-ado)

Sequence of DLG5_1, Q8TDM6 (Q8TDM6 617-713): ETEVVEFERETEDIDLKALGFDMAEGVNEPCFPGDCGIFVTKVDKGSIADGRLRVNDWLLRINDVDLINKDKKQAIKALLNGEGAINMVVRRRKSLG

pKd	Binder
below the threshold	PAPGQHTTQI [STK16, O75716]
below the threshold	DSATVRTYSC [PPFIA1, Q13136]

Biological target: Inadl_3, Q8NI35
Experiment: holdup assay
Set-up: key: below the threshold = too weak to quantify, mostly under pKd 3.1 to 4
Settings: plain residues with an end cap or a label only (N-terminal biotin on a linker: ado-ado)

Sequence of Inadl_3, Q8NI35 (Q8NI35 359-469): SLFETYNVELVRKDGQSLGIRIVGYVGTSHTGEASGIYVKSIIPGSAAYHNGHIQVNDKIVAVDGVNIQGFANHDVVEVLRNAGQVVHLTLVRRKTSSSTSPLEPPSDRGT

pKd	Binder
below the threshold	PAPGQHTTQI [STK16, O75716]
below the threshold	DSATVRTYSC [PPFIA1, Q13136]

Biological target: T8, APBA1_2, Q02410
Experiment: holdup assay
Set-up: key: below the threshold = too weak to quantify, mostly under pKd 3.1 to 4
Settings: plain residues with an end cap or a label only (N-terminal biotin on a linker: ado-ado)

pKd	Binder
below the threshold	PAPGQHTTQI [STK16, O75716]
below the threshold	DSATVRTYSC [PPFIA1, Q13136]

Biological target: GRIP2_6, Q9C0E4
Experiment: holdup assay
Set-up: key: below the threshold = too weak to quantify, mostly under pKd 3.1 to 4
Settings: plain residues with an end cap or a label only (N-terminal biotin on a linker: ado-ado)

Sequence of GRIP2_6, Q9C0E4 (Q9C0E4 648-740): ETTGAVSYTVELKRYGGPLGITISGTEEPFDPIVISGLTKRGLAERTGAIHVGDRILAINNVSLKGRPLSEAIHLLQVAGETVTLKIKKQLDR

pKd	Binder
below the threshold	PAPGQHTTQI [STK16, O75716]
5.71	DSATVRTYSC [PPFIA1, Q13136]

Biological target: T9, RAPGEF6, Q8TEU7
Experiment: holdup assay
Set-up: key: below the threshold = too weak to quantify, mostly under pKd 3.1 to 4
Settings: plain residues with an end cap or a label only (N-terminal biotin on a linker: ado-ado)

pKd	Binder
3.49	PAPGQHTTQI [STK16, O75716]
below the threshold	DSATVRTYSC [PPFIA1, Q13136]

Biological target: MAGI1_1, Q96QZ7
Experiment: holdup assay
Set-up: key: below the threshold = too weak to quantify, mostly under pKd 3.1 to 4
Settings: plain residues with an end cap or a label only (N-terminal biotin on a linker: ado-ado)

Sequence of MAGI1_1, Q96QZ7 (Q96QZ7 1-106): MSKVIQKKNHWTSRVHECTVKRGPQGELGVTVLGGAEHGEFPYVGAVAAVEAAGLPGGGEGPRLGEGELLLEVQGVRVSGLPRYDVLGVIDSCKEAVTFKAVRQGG

pKd	Binder
below the threshold	PAPGQHTTQI [STK16, O75716]
below the threshold	DSATVRTYSC [PPFIA1, Q13136]
